B1: Pleckstrin homology domain-containing family M member 1 (Homo sapiens), Q9Y4G2 (parent)
chain: MLSVVENGLDPQAAIPVIKKKLVGSVKALQKQYVSLDTVVTSEDGDANTMCSALEAVFIHGLHAKHIRAEAGGKRKKSAHQKPLPQPVFWPLLKAVTHKHIISELEHLTFVNTDVGRCRAWLRLALNDGLMECYLKLLLQEQARLHEYYQPTALLRDAEEGEFLLSFLQGLTSLSFELSYKSAILNEWTLTPLALSGLCPLSELDPLSTSGAELQRKESLDSISHSSGSEDIEVHHSGHKIRRNQKLTASSLSLDTASSSQLSCSLNSDSCLLQENGSKSPDHCEEPMSCDSDLGTANAEDSDRSLQEVLLEFSKAQVNSVPTNGLSQETEIPTPQASLSLHGLNTSTYLHCEAPAEPLPAQAASGTQDGVHVQEPRPQAPSPLDLQQPVESTSGQQPSSTVSETAREVGQGNGLQKAQAHDGAGLKLVVSSPTSPKNKSWISEDDFYRPSREQPLESASDHPIASYRGTPGSRPGLHRHFSQEPRKNCSLGALDQACVPSPGRRQAQAAPSQGHKSFRVVHRRQMGLSNPFRGLMKLGTVERRGAMGIWKELFCELSPLEFRLYLSNEEHTCVENCSLLRCESVGPAHSDGRFELVFSGKKLALRASSQDEAEDWLDRVREALQKVRPQQEDEWVNVQYPDQPEEPPEAPQGCLSPSDLLSEPAALQGTQFDWSSAQVPEPDAIKESLLYLYMDRTWMPYIFSLSLEALKCFRIRNNEKMLSDSHGVETIRDILPDTSLGGPSFFKIITAKAVLKLQAGNAEEAALWRDLVRKVLASYLETAEEAVTLGGSLDENCQEVLKFATRENGFLLQYLVAIPMEKGLDSQGCFCAGCSRQIGFSFVRPKLCAFSGLYYCDICHQDDASVIPARIIHNWDLTKRPICRQALKFLTQIRAQPLINLQMVNASLYEHVERMHLIGRRREQLKLLGDYLGLCRSGALKELSKRLNHRNYLLESPHRFSVADLQQIADGVYEGFLKALIEFASQHVYHCDLCTQRGFICQICQHHDIIFPFEFDTTVRCAECKTVFHQSCQAVVKKGCPRCARRRKYQEQNIFA

Variants of: B1
Details: with rab7a_canlf RAB7A

Question: For E729A, which “effect of a mutation on the interaction” value is on record?
Answer: with no effect

Question: R769A was tested. Which “effect of a mutation on the interaction” value did it give?
Answer: with no effect
